Sequences and labels used below:
B1: HDV Ribozyme (parent)
chain: GGCCGGCAUGGUCCCAGCCUCCUCGCUGGCGCCGGCUGGGCAACAUUCCGAGGGGACCGUCCCCUCGGUAAUGGCGAAUGGGACCCA

The variants in this series derive from B1. The series is described as follows: self-cleavage, relative activity (ratio to wild type); higher = more cleavage; co-transcriptional.
With GGCCGGCAUGGUCCCAUCCUCCUCGCUAGCGCCGGCUGGGCAACAUUCCGAGGGGACCGUCCCCUCGGUAAUGGCGAAUGGGACCCA [G17U G28A], the self-cleavage was found to be 0.188.

For the variant GGCCGGCAUGGUCCCAGCCUCCUCGCUGGCGCCGGCUAGGCAACAUUCCGAGGGGACCAUCCCCUCGGUAAUGGCGAAUGGGACCCA [G38A G59A], the self-cleavage came to 0.0801.

In the case of GGCCGGCAUAGUCCCAGCCUCCUCGCUGGCGCCGGCUGGGCAACAUUCCGAGGGGACCGUCCCCUCGGUAAUGGUGAAUGGGACCCA [G10A C75U], the self-cleavage was found to be 0.0992.

Turning to GGGCGGCAUGGUCCCAGCCUCCUCGCUGGCGCCGGCUGGGCAACAUUCCGAGGGGACCGUCCCCUCGGUAAUGUCGAAUGGGACCCA [C3G G74U], the self-cleavage worked out at 0.189.

Take GGCCGGCAUGGUCCCAGCCUCCUCGCUGGCGCCGGCUGGGCAACAUUCCGAGGGGACCGUCCCCUGGGUAAUGGCGAAUGGGAUCCA [C66G C84U]: the self-cleavage was found to be 0.545.

With GGCAGGCAUGGUCCCAGCCUCCUCGCUGGCGCCGGCUGGGCAACAUUUCGAGGGGACCGUCCCCUCGGUAAUGGCGAAUGGGACCCA [C4A C48U], the self-cleavage worked out at 0.151.

In the case of GGCCGGCCUGGUCCCAGCCUCCUCGCUGGCGCCGGCUGGGCAACAUUCCGAGGAGACCGUCCCCUCGGUAAUGGCGAAUGGGACCCA [A8C G54A], the self-cleavage was 0.759.

With GGCCGGCAUCAUCCCAGCCUCCUCGCUGGCGCCGGCUGGGCAACAUUCCGAGGGGACCGUCCCCUCGGUAAUGGCGAAUGGGACCCA [G10C G11A], the self-cleavage was determined as 0.38.

In the case of GGCCGGCAUGGUCCCAGCCUCCUCGCUGGCGCCGGCUGGGCAACAUUCCGAGUGGACCGUCCCCUCGGUAAUGGCGAAUGGAACCCA [G53U G82A], the self-cleavage is 0.496.

For GGCCGGCAUGGUCCCAGCCUCCUCGCUGGCGCCGGCUGGGCAACAUUCCGAGGUGACCGUCUCCUCGGUAAUGGCGAAUGGGACCCA [G54U C62U], the self-cleavage came out at 0.98.

As for GGCCGGCAUGGUCCCAGCCUCCUCGCUGGCGCCGGCUGGGCAACAUUCCGAGCGGACCGUCCUCUCGGUAAUGGCGAAUGGGACCCA [G53C C63U], the self-cleavage stood at 0.997.

Regarding GGCCGGCAUGGUCCCAGCCUCCUCGCUGGCGCCGGCUGGGCGACAUUCCGAGGGGACCGUCCCCUCGGUAAUGGCGAAUGGGGCCCA [A42G A83G], the self-cleavage was 0.361.

Regarding GGCCGGCAUGGUCCCAGCCUCCUCGCUGGCGCCGGAUGGGCAACAUUCCGAGGGGACCGUCCCCUCGGUGAUGGCGAAUGGGACCCA [C36A A70G], the self-cleavage is 0.119.

As for GGCCGGCAUGGUCCCAGCCUCCUCGCUGGCGCCCGCUGGGCAACAUUCCGAGGGGACUGUCCCCUCGGUAAUGGCGAAUGGGACCCA [G34C C58U], the self-cleavage was 0.181.

As for GGCCGGCUUGGUCCCAGCCUCCUCGCUGGCGCCGGCUGGGCAACAUUCCGAGGGGACCGACCCCUCGGUAAUGGCGAAUGGGACCCA [A8U U60A], the self-cleavage is 0.939.

Consider GGGCGGCAUGGUCCCAGCCUCCUCGCUGGCGCCGGCUGGGCAACAUUCCGAGGGGACCGUCUCCUCGGUAAUGGCGAAUGGGACCCA [C3G C62U], for which the self-cleavage was 0.822.

In the case of GGCCGGCAUGGUCCCAGCCUCCUCGCGGGCGCCGGCUGGGCAACAUUCCGAGGGGACCGUCCCCUCGGUAAUGGCGAAUGAGACCCA [U27G G81A], the self-cleavage was determined as 0.597.

With GGCCGGCAUGGUCCCAGCCUCCUCGCUGGCGCCGGCUGGGCAACAUUCCGAGAGGACCGUCCCCUCGGUAAUGGCGAAUGGGACCCC [G53A A87C], the self-cleavage is 1.1.

Consider GGCCGGCAUGGUCCCAGCCUCCUCGCUGGCGCCGGCUGGGCAAGAUUCCGAGGCGACCGUCCCCUCGGUAAUGGCGAAUGGGACCCA [C44G G54C], for which the self-cleavage amounted to 0.831.

GGCCGGCAUGGUCACAGCCUCCUCGCUGGCGCCGGCUGGGCAACAUUCCGCGGGGACCGUCCCCUCGGUAAUGGCGAAUGGGACCCA [C14A A51C]: the self-cleavage stood at 0.959.

Regarding GGCCGGCAUGGUCCCAGCCUCCUCGCUGGCGCCGGCUGGGCAAAAUUCCGAGGGGUCCGUCCCCUCGGUAAUGGCGAAUGGGACCCA [C44A A56U], the self-cleavage came out at 0.614.

On to GGCCGGCAUGGUCCAAGCCUCCUCGCUGGCGCCGGCUGGGCAACAUUCCGAGGGGACCGUCCCCUCGGUAAUGGCGAAUGGGAUCCA [C15A C84U], for which the self-cleavage worked out at 0.665.

For GGCCGGCAUGGUCCCAGCCUCCUCGCUGGCGCCGGCUGGGCAACAAUCCGAGGGGACCGUCCCCUCGGUAGUGGCGAAUGGGACCCA [U46A A71G], the self-cleavage worked out at 0.895.

Take GGCCGGCAUGGUCCCAGCCUCCUCACUGGCGCCGGCUGGGCAACAUUCCGAGGGGACCGUCCCCUCGGUAAUGGCGAGUGGGACCCA [G25A A78G]: the self-cleavage turned out to be 0.0339.

On to GGCCGGCAUGGUCCCAGCCUCCUCCCUGGCGCCGGCUGGGCAACAUUCCGAGGGGACCGUCUCCUCGGUAAUGGCGAAUGGGACCCA [G25C C62U], for which the self-cleavage came to 0.145.

For the variant GGCCGGCAUGGUCCCAGCCUCCUCGCUGGCGCCGGCUGGGCAACAUUCCGAGGGGACCGUGCCCUCGGUAGUGGCGAAUGGGACCCA [C61G A71G], the self-cleavage was found to be 0.808.

As for GGCCGCCAUGGUCCCAGCCUCCUCGCUGGCGCCGUCUGGGCAACAUUCCGAGGGGACCGUCCCCUCGGUAAUGGCGAAUGGGACCCA [G6C G35U], the self-cleavage turned out to be 0.256.

Turning to GGCCGACAUGGUCUCAGCCUCCUCGCUGGCGCCGGCUGGGCAACAUUCCGAGGGGACCGUCCCCUCGGUAAUGGCGAAUGGGACCCA [G6A C14U], the self-cleavage is 0.87.

As to GGCCGGCAUGGUCCCAGCCUUCUCGCUGGCGCCGGCUGGGCAACAUGCCGAGGGGACCGUCCCCUCGGUAAUGGCGAAUGGGACCCA [C21U U47G], the self-cleavage is 0.185.

Turning to GGCCGGCAUGGUCCCAGCCUCCUCGCUGGCGCCGGCUGGGUAACAUGCCGAGGGGACCGUCCCCUCGGUAAUGGCGAAUGGGACCCA [C41U U47G], the self-cleavage stood at 0.95.

As for GGCCGGCAUGGUCCCAGCCUCCUCGCUGGCGCCGGCUGGGCAACAUUCCGAGGGGACCGUCCCCUCGGUAAUGGCGAAUGGGACCGA [C86G], the self-cleavage was 0.983.

Regarding GGCCGGCAUGCUCCCAGCCUCCUCGCUGGCGCCGACUGGGCAACAUUCCGAGGGGACCGUCCCCUCGGUAAUGGCGAAUGGGACCCA [G11C G35A], the self-cleavage was found to be 0.125.

Values taken from the RNAGym collection of RNA variant scans (doi:10.7554/elife.80360).
